Assay results taken from IntAct's records for PubMed 20551905.

B1: SUN domain-containing protein 2 (Homo sapiens), Q9UH99 (parent)
chain: MSRRSQRLTRYSQGDDDGSSSSGGSSVAGSQSTLFKDSPLRTLKRKSSNMKRLSPAPQLGPSSDAHTSYYSESLVHESWFPPRSSLEELHGDANWGEDLRVRRRRGTGGSESSRASGLVGRKATEDFLGSSSGYSSEDDYVGYSDVDQQSSSSRLRSAVSRAGSLLWMVATSPGRLFRLLYWWAGTTWYRLTTAASLLDVFVLTRRFSSLKTFLWFLLPLLLLTCLTYGAWYFYPYGLQTFHPALVSWWAAKDSRRPDEGWEARDSSPHFQAEQRVMSRVHSLERRLEALAAEFSSNWQKEAMRLERLELRQGAPGQGGGGGLSHEDTLALLEGLVSRREAALKEDFRRETAARIQEELSALRAEHQQDSEDLFKKIVRASQESEARIQQLKSEWQSMTQESFQESSVKELRRLEDQLAGLQQELAALALKQSSVAEEVGLLPQQIQAVRDDVESQFPAWISQFLARGGGGRVGLLQREEMQAQLRELESKILTHVAEMQGKSAREAAASLSLTLQKEGVIGVTEEQVHHIVKQALQRYSEDRIGLADYALESGGASVISTRCSETYETKTALLSLFGIPLWYHSQSPRVILQPDVHPGNCWAFQGPQGFAVVRLSARIRPTAVTLEHVPKALSPNSTISSAPKDFAIFGFDEDLQQEGTLLGKFTYDQDGEPIQTFHFQAPTMATYQVVELRILTNWGHPEYTCIYRFRVHGEPAH

Variants of: B1
Conditions: with copb_human COPB1, P53618
Chain of copb_human COPB1, P53618 (P53618 whole entry): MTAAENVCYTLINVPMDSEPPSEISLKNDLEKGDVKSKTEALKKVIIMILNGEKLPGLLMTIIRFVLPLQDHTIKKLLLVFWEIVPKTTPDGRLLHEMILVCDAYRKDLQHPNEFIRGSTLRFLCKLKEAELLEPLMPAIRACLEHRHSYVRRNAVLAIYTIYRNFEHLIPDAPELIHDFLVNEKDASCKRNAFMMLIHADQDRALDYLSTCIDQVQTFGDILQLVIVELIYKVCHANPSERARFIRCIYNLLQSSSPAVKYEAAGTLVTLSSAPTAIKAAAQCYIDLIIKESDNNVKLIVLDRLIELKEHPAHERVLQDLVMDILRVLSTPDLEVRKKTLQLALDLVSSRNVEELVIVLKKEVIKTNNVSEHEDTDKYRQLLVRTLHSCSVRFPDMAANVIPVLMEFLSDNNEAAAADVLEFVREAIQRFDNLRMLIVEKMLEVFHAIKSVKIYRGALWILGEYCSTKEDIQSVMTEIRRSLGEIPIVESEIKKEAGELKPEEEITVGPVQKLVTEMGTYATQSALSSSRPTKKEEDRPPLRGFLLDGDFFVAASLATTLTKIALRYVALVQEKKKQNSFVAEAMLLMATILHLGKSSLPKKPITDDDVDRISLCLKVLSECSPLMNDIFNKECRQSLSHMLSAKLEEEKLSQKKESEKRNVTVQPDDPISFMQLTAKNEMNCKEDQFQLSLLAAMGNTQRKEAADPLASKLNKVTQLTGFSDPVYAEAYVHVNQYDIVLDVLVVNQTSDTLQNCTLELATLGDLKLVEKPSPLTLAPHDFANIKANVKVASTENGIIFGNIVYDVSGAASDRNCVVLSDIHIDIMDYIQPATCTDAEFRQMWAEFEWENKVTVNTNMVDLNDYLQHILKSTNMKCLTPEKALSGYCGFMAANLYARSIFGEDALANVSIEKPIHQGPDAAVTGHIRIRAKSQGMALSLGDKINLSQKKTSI

effect of a mutation on the interaction | Variant
disrupting interaction | R45A
disrupting interaction | R102A;R103A;R104A;R105A
disrupting interaction | K44A
disrupting interaction | R41A
disrupting interaction | R52A
disrupting interaction | K51A
disrupting interaction | K46A
